Data from US20250296971A1, “GASTRIC INHIBITORY PEPTIDE RECEPTOR LIGANDS” (priority 2021, published 2025).
Each block holds one binder with its values, some of them ahead of it. *1 amine or outer side, *2 acyl side, *3 side chain or, on linkers, in order; H or OH if unused. Bridges are numbered along the chain shown (N, C = ends). Primed or numbered codes have the meaning given here. [ ]: non-standard residue; d: D form. The star is where a group is joined. Ttds = 1,13-diamino-4,7,10-trioxatridecan-succinamic acid, NCCCOCCOCCOCCCNC(=O)CCC(=O)*; Ttds(4) = 1,13-diamino-4,7,10-trioxatridecan-succinamic acid; DOTA = O=C(O)CN1CCN(CC(=O)O)CCN(CC(=O)*)CCN(CC(=O)O)CC1; Trp(5-Cl) = N[C@@H](Cc1c[nH]c2ccc(Cl)cc12)C(=O)O; Pyridine(2,6-diCH2) = c1cc(C[*:1])nc(C[*:2])c1; Phe(2,4-Cl2) = N[C@@H](Cc1ccc(Cl)cc1Cl)C(=O)O; Trp(7-aza) = N[C@@H](Cc1c[nH]c2ncccc12)C(=O)O; 2Lut″ = 2,6-lutidylidene linking two thiols; Phe(4-Cl) = N[C@@H](Cc1ccc(Cl)cc1)C(=O)O; 1Nal = N[C@@H](Cc1cccc2ccccc12)C(=O)O; mXylylene = c1cc(C[*:1])cc(C[*:2])c1; Hyp = O=C(O)[C@@H]1C[C@@H](O)CN1; Cysteamide = C(CS[*:3])N[*:1]; Thp = NC1(C(=O)O)CCOCC1; Aib = CC(C)(N)C(=O)O

Biological target: human Gastric Inhibitory Peptide Receptor (GIPR) (human) (UniProt P48546)
Experiment: FACS competition vs biotinylated GIP-057 on CHO-K1-hGIPR cells; category D: pIC50 <=6.0

pIC50: < 6 pic50
B1: Ac-Asp-Trp-5Clw-Hyp-Glu-leu-[Cys(2Lut)-Thp-Leu-Trp-Cys]-NH2 (peptide)
peptide: Ac-DW[Trp(5-Cl)][Hyp]E[dL]C[Thp]LWC-NH2
modifications: linker 7-11 via Pyridine(2,6-diCH2)
SMILES: CC(=O)N[C@@H](CC(=O)O)C(=O)N[C@@H](Cc1c[nH]c2ccccc12)C(=O)N[C@@H](Cc1c[nH]c2ccc(Cl)cc12)C(=O)N1C[C@H](O)C[C@H]1C(=O)N[C@@H](CCC(=O)O)C(=O)N[C@H](CC(C)C)C(=O)N[C@H]1CSCc2cccc(n2)CSC[C@@H](C(N)=O)NC(=O)[C@H](Cc2c[nH]c3ccccc23)NC(=O)[C@H](CC(C)C)NC(=O)C2(CCOCC2)NC1=O

pIC50: < 6 pic50
B2: Ac-Asp-Trp-5Clw-Hyp-Glu-leu-[Cys(2Lut)-Thp-Leu-Glu-Cys]-NH2 (peptide)
peptide: Ac-DW[Trp(5-Cl)][Hyp]E[dL]C[Thp]LEC-NH2
modifications: linker 7-11 via Pyridine(2,6-diCH2)
SMILES: CC(=O)N[C@@H](CC(=O)O)C(=O)N[C@@H](Cc1c[nH]c2ccccc12)C(=O)N[C@@H](Cc1c[nH]c2ccc(Cl)cc12)C(=O)N1C[C@H](O)C[C@H]1C(=O)N[C@@H](CCC(=O)O)C(=O)N[C@H](CC(C)C)C(=O)N[C@H]1CSCc2cccc(n2)CSC[C@@H](C(N)=O)NC(=O)[C@H](CCC(=O)O)NC(=O)[C@H](CC(C)C)NC(=O)C2(CCOCC2)NC1=O

pIC50: < 6 pic50
B3: Ac-Asp-Trp-Egm-Hyp-Glu-leu-[Cys(2Lut)-Thp-Leu-Ile-Cys]-NH2 (peptide)
peptide: Ac-DW[Phe(2,4-Cl2)][Hyp]E[dL]C[Thp]LIC-NH2
modifications: linker 7-11 via Pyridine(2,6-diCH2)

pIC50: < 6 pic50
B4: Ac-Asp-Trp-5Clw-Hyp-Glu-leu-[Cys(2Lut)-Thp-Leu-Arg-Cys]-NH2 (peptide)
peptide: Ac-DW[Trp(5-Cl)][Hyp]E[dL]C[Thp]LRC-NH2
modifications: linker 7-11 via Pyridine(2,6-diCH2)
SMILES: CC(=O)N[C@@H](CC(=O)O)C(=O)N[C@@H](Cc1c[nH]c2ccccc12)C(=O)N[C@@H](Cc1c[nH]c2ccc(Cl)cc12)C(=O)N1C[C@H](O)C[C@H]1C(=O)N[C@@H](CCC(=O)O)C(=O)N[C@H](CC(C)C)C(=O)N[C@H]1CSCc2cccc(n2)CSC[C@@H](C(N)=O)NC(=O)[C@H](CCCNC(=N)N)NC(=O)[C@H](CC(C)C)NC(=O)C2(CCOCC2)NC1=O

pIC50: < 6 pic50
B5: DOTA-Ttds-Trp-Asp-Pro-5Clw-leu-Glu-[Cys(3MeBn)-Leu-Ile-Aib-AET] (peptide)
peptide: {DOTA-Ttds}-WDP[Trp(5-Cl)][dL]ECLI[Aib][Cysteamide]
modifications: linker 7-11 via mXylylene

pIC50: < 6 pic50
B6: Ac-Asp-Trp-Pcf-Hyp-Glu-leu-[Cys(2Lut)-Thp-Leu-Ile-Cys]-NH2 (peptide)
peptide: Ac-DW[Phe(4-Cl)][Hyp]E[dL]C[Thp]LIC-NH2
modifications: linker 7-11 via 2Lut″

pIC50: < 6 pic50
B7: Ac-Asp-7Nw-1Ni-Pro-Glu-leu-[Cys(3MeBn)-Aib-Leu-Ile-Cys]-Ttds-Lys(DOTA)-NH2 (peptide)
peptide: Ac-D[Trp(7-aza)][1Nal]PE[dL]C[Aib]LIC-{Ttds(4)-K(DOTA)-NH2}
modifications: linker 7-11 via mXylylene

pIC50: < 6 pic50
B8: DOTA-Ttds-leu-Asp-Pro-5Clw-Trp-Leu-[Cys(3MeBn)-Glu-Aib-Ile-AET] (peptide)
peptide: {DOTA-Ttds}-[dL]DP[Trp(5-Cl)]WLCE[Aib]I[Cysteamide]
modifications: linker 7-11 via mXylylene
